Experimental data from patent publication US20240400717A1, “Antibody Binding to CHI3L1 for Treating Cancer” (National Cheng Kung University, priority 2021, published 2024).

Experiments:
H460 cells = assay: H460-bearing hHSC-HIS mouse model; type: in vivo, hHSC reconstituted ASID mice
Excerpt: (§1) We used the advanced severe immunodeficiency (ASID) mice those were implanted with human […] hematopoietic stem cells (HSCs). MiaPaCa-2 and H460 cells were then subcutaneously injected into hHSC reconstituted ASID mice to evaluate the anti-tumor effects of CHI3L1 mAb clone R4-54 on lung and pancreatic cell lines in vivo. […] Tumor and peripheral blood were also harvest for further immune cell population examinations. […] In addition, peripheral blood samples of two tumor-bearing hHSC-HIS mice models were collected for analysis of immune cell populations. […] Data was presented as means±S.D. P values refer to two-tailed Student's t test. * P<0.05, ** P<0.01, *** P<0.001.

MiaPaCa-2 cells = assay: MiaPaCa-2-bearing hHSC-HIS mouse model; type: in vivo, hHSC reconstituted ASID mice
Excerpt: as §1

[1] = Mouse muscle fiber area analysis (cachexia) in KPPC-luc orthotopic model; type: in vivo, C57BL/6J mice
Experimental: Since pancreatic patients often suffer from cachexia, the cancer-related muscle loss disorder (Henderson et al. 2018; Yoo et al. 2021), we further performed the mouse muscle fiber area analysis in IgG and R4-4 (10 mg/kg) groups. […] The value of the cross-sectional cutoff area was set to 1800, representing severe muscle loss (FIG. 15D).

KPPC-luc cells [2] = assay: KPPC-luc orthotopic C57BL/6J mice model, mAb and chemotherapy combination; settings: for tumor weight: day 29
mouse rCHI3L1 = mouse rCHI3L1 (Mus musculus, UniProt Q61362); assay: ELISA binding to mouse rCHI3L1; settings: FIG. 10B
Sequence of mouse rCHI3L1 (Q61362 30-389): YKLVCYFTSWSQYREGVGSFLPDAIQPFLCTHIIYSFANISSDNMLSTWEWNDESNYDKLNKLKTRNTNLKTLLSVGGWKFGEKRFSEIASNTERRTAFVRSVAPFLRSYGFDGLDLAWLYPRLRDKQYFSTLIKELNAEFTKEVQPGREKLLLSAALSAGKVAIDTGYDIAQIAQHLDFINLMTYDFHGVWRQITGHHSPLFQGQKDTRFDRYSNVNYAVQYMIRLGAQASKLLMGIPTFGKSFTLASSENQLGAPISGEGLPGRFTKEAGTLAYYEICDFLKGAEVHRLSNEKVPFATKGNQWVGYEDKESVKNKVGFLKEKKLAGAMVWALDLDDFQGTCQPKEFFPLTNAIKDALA
Experimental: FIGS. 10A to 10B show binding curves of ELISA assay indicated the binding of R4-4 (circle), R4-54 (square), 293R3-2 (triangle), and 293R3-4 (reverse triangle) to (FIG. 10A) human rCHI3L1 and (FIG. 10B) mouse rCHI3L1.
(§2) Thus, we established orthotopic animal models by directly injecting murine pancreatic cancer KPPC-luc cells (5×10^6) into pancreas of immunocompetent (C57BL/6J) mice. All mice were divided into two groups and treated with IgG isotype antibody as control, or mAb clone R4-4 (5 mg/kg) by intravenous (i.v.) injection via tail-vein at indicated time points (Day 3, Day 7, Day 10, and Day 14). Mice were sacrificed to verify tumor information on day 28. […] Data was presented as means±S.D. P values refer to two-tailed Student's t test. * P<0.05, ** P<0.01.

mouse CHI3L1 antigen = mouse CHI3L1 antigen (Mus musculus, UniProt Q61362); assay: Direct ELISA of phage clones, cross-reaction with mouse CHI3L1; type: binding; settings: FIG. 1C
Sequence of mouse CHI3L1 antigen (Q61362 30-389): as above

KPPC-luc cells [3] = assay: KPPC-luc orthotopic C57BL/6J mice model, mono-treatment; type: in vivo
Experimental: as §2

[4] = immunohistochemical staining, CD86 and CD163

B1: R4-54: fully human anti-CHI3L1 IgG1 mAb, Table 1 No. 34; heavy chain SEQ ID NO: 33, light chain SEQ ID NO: 34 (antibody, listed as Homo sapiens)
VH: QVQLVESGGGVVQPGRSLRLSCAASGFTFSSYGMHWVRQAPGKGLEWVAVISYDGSDKDYADSVKGRFTISRDNSKNTLFLQMNSLRAEDTAVYYCARDDYDSTYYFDNWGQGTTVTVSS
light: SYELTQPPSVSVSPGQTASITCSGDILADQYASWYQQKPGQSPVLVIYHDTKRPSGVPERFSGSTSGNTATLTISGTQAMDEAAYYCQAWDINTAWVFGGGTQLTVLGQPKAAPSVTLFPPSSEELQANKATLVCLISDFYPGAVTVAWKADSSPVKAGVETTTPSKQSNNKYAASSYLSLTPEQWKSHRSYSCQVTHEGSTVEKTVAPTECS
H460 cells; 5 mg/kg i.v. every five days from day 6, day 27
  growth of subcutaneous xenografts: significantly delayed the growth
H460 cells; flow cytometry
  M2-like TAM and Treg populations in tumor-infiltrating immune cells: M2-like TAM and Treg populations were decreased
  percentages of M1 macrophages and CD8+ T cells in tumor-infiltrating immune cells: increased the percentages of M1 macrophages and CD8+ T cells
H460 cells; [4]
  intratumoral M1 to M2 ratio and CD8 T cells: M1 to M2 ratio and CD8 T cells were both increased
H460 cells; peripheral blood
  peripheral blood CD8+ T cells and Tregs: increased CD8+ T cells and decreased Tregs
MiaPaCa-2 cells; 5 mg/kg i.v. every five days from day 14, day 32
  growth of subcutaneous xenografts: significantly delayed the growth
MiaPaCa-2 cells; flow cytometry
  M2-like TAM and Treg populations in tumor-infiltrating immune cells: M2-like TAM and Treg populations were decreased
  percentages of M1 macrophages and CD8+ T cells in tumor-infiltrating immune cells: increased the percentages of M1 macrophages and CD8+ T cells
MiaPaCa-2 cells; [4]
  intratumoral M1 to M2 ratio and CD8 T cells: M1 to M2 ratio and CD8 T cells were both increased
MiaPaCa-2 cells; peripheral blood
  peripheral blood CD8+ T cells and Tregs: increased CD8+ T cells and decreased Tregs

B2: R4-4: fully human anti-CHI3L1 IgG1 mAb, Table 1 No. 9; heavy chain SEQ ID NO: 9, light chain SEQ ID NO: 10 (antibody, listed as Homo sapiens)
VH: EVQLLESGGGLLQPGGSLRLSCAASGLTFRNYAMTWVRQAPGKGLEWVSTISGNGDETFYADSVKGHFTISRDNSKDTVYLQMNSLRAEDTAVYYCAKGGHYSFFDSWGQGSPVTVSS
light: NFMLTQPHSVSESPGKTVTISCTRSSGSIASNYVQWYQQRPGSSPTTVIYEDNQRPSGVPDRFSGSIDSSSNSASLTISGLKTEDEADYYCQSYDSSNYVFGTGTKVTVLGQPKANPTVTLFPPSSEELQANKATLVCLISDFYPGAVTVAWKADGSPVKAGVETTKPSKQSNNKYAASSYLSLTPEQWKSHRSYSCQVTHEGSTVEKTVAPAECS
[1]; R4-4 10 mg/kg compared to IgG
  muscle fiber area: larger muscle fiber area
[1]; R4-4 10 mg/kg, cross-sectional cutoff area 1800
  muscle fibers below the cutoff value: 30.4%
KPPC-luc cells [2]; GEM 25 mg/kg, R4-4 10 mg/kg, Abraxane 2.5 mg/kg, i.p. day 14, 20, 25
  tumor weight: 2.61 g
KPPC-luc cells [2]; R4-4 15 mg/kg i.p. day 14, 20, 25
  tumor weight: 1.74
KPPC-luc cells [2]; R4-4 15 mg/kg, flow cytometry
  Treg (CD4+, CD25+, Foxp3+): significant decrease of Treg
KPPC-luc cells [2]; all treated groups (R4-4 10 or 15 mg/kg)
  angiogenesis level indicated by CD31: largely reduced
KPPC-luc cells [2]; flow cytometry
  tumor-infiltrating M1-like TAMs (CD86+, CD11b+) and M1/M2 ratio: increased M1-like TAMs
  tumor-infiltrating M2-like TAMs (CD206+, CD11b+): decreased M2-like TAMs
Mouse rCHI3L1
  cross-reaction with murine CHI3L1: the only one that could cross-react with murine CHI3L1
Mouse CHI3L1 antigen
  recognition of mouse CHI3L1 by phage clones: cross-react with mouse CHI3L1
KPPC-luc cells [3]; 5 mg/kg i.v. Day 3, 7, 10, 14, day 28, vs IgG
  tumor weight: significant reduction of tumor weight
KPPC-luc cells [3]; 5 mg/kg i.v., vs IgG
  body weight: without apparently body weight change
KPPC-luc cells [3]; flow cytometry, 5 mg/kg i.v.
  M1/M2 ratio: increased the M1/M2 ratio
  tumor infiltrating M2-like TAMs (CD206+): decreased
  tumor infiltrating Treg (CD45+, Foxp3+) populations: decreased
